Earlier results as cited in paper PMC8070608.
Where two headings read alike, the source gives them in different places.

Columns and labels:
tPA (Homo sapiens) [1] = molecular target: tPA (Homo sapiens) (UniProt P00750)
[2] = molecular target: plasminogen (Homo sapiens) (UniProt P00747)
tPA (Homo sapiens) [3] = molecular target: tPA (Homo sapiens) (UniProt P00750); remark: listed apart in the source

Sequence of UniProt P00750 (P00750 36-562): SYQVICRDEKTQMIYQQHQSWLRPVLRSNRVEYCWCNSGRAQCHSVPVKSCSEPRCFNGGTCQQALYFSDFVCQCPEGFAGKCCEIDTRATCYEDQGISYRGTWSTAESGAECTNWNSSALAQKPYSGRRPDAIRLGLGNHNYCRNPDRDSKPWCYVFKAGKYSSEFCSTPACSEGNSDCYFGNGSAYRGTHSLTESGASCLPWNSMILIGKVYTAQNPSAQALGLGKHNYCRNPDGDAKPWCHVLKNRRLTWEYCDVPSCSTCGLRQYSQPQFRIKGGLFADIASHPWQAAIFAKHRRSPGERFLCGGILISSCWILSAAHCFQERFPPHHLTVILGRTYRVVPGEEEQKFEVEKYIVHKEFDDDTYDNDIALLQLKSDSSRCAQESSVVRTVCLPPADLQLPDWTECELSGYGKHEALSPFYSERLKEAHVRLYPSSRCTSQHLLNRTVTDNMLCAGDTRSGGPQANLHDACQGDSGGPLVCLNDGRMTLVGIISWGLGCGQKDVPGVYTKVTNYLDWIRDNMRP
Sequence of UniProt P00747 (P00747 20-810): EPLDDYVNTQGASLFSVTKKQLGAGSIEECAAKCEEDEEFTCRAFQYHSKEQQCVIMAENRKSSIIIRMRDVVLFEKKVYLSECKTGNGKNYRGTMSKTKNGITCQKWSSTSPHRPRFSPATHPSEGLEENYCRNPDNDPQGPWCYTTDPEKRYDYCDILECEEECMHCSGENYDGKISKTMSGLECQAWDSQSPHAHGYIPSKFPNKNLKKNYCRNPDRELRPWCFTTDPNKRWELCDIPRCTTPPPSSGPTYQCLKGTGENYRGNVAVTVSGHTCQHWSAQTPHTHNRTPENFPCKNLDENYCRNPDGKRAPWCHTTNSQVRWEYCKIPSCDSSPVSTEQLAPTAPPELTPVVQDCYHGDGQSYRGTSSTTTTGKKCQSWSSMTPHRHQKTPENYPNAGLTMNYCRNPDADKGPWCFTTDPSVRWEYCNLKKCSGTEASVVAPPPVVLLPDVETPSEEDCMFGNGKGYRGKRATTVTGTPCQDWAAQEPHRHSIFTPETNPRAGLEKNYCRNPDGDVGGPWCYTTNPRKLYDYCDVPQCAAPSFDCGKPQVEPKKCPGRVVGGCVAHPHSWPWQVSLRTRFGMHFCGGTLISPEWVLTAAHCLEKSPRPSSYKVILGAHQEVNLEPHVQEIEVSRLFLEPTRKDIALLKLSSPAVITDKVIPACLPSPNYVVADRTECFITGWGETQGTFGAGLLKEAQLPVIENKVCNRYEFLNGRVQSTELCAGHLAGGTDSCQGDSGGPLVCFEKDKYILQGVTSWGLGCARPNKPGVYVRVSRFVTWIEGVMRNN

Kd (tPA (Homo sapiens) [1]) [nM] | Kd [2] [nM] | Kd (tPA (Homo sapiens) [3]) [nM] | Substance
680 | 110 |  | p11 (from UniProt P60903)
 |  | 48 | p36 (annexin A2) (from UniProt P07355)
